In paper PMC8372624 one finds Kd data, which are given here for one molecule.

Usually Kd stands for the equilibrium constant for the complex coming apart. Higher therefore signals lower affinity.

For the assay, the target named is fluorescently labeled non-covalent analog of peptide 5 with a non-nucleophilic acetate group on position 133 (UniProt P46937). Nature of the assay: fluorescence polarisation. (In general: In fluorescence polarisation assays a small probe gives low polarisation when free and higher when bound to something large.)
Chain of UniProt P46937 (P46937 whole entry, looked up, tested part not stated): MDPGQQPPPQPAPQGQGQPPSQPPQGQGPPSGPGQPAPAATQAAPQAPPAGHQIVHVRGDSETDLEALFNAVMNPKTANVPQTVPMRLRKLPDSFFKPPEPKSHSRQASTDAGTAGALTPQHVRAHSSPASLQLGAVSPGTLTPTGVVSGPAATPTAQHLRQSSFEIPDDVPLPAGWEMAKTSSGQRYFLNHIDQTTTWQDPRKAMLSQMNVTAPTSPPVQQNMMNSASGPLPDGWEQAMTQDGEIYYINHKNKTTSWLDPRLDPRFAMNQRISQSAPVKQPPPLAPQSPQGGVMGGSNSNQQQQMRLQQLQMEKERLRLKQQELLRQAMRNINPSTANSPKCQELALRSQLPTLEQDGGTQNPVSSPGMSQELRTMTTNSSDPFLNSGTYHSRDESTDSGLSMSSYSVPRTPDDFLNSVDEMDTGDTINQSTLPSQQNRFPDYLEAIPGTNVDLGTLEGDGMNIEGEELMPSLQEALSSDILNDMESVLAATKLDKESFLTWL

B1: recombinant full-length 14-3-3σ (1–248) (natural protein)
chain: MERASLIQKAKLAEQAERYEDMAAFMKGAVEKGEELSCEERNLLSVAYKNVVGGQRAAWRVLSSIEQKSNEEGSEEKGPEVREYREKVETELQGVCDTVLGLLDSHLIKEAGDAESRVFYLKMKGDYYRYLAEVATGDDKKRIIDSARSAYQEAMDISKKEMPPTNPIRLGLALNFSVFHYEIANSPEEAISLAKTTFDEAMADLHTLSEDSYKDSTLIMQLLRDNLTLWTADNAGEEGGEAPQEPQS
For the molecule B1, the Kd was 106 nM.
